The results in this text go back to patent US20110165066A1.

The target of test [1] is human IL-13 variant (R130Q) (human) (UniProt P35225). The experiment in a line: SPR (Biacore). A general note: In SPR one partner is held on a chip, and binding of the other changes the refractive index at the surface.
For test [2], the target named is human IL-13 wild type (human) (UniProt P35225). Kind of test: SPR (Biacore).
For test [3] the target is unchanged. The experiment in a line: cell surface-based receptor binding assay, IL-13 binding to IL-13Rα2 on COS cells.
For test [4] the target is unchanged. The experiment in a line: ELISA-based receptor binding assay, blocking biotin-IL-13 binding to IL-13Rα2/Fc.
The target is the same in test [5]. Kind of test: ELISA-based receptor binding assay, IL-13 binding to IL-13Rα2/Fc. (An ELISA detects its analyte on a solid surface through an enzyme-linked reagent.)
For test [6] the target is unchanged. The experiment in a line: cell surface-based receptor binding assay, blocking 125I-IL-13 binding to IL-13Rα2-transfected COS cells.

Chain of human IL-13 wild type (human) (P35225 other isoform, or with tags, fused parts or gaps limits assumed): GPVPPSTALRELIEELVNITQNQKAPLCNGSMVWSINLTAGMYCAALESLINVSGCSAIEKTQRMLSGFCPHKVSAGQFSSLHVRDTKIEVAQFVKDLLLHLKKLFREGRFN
Chain of human IL-13 variant (R130Q) (human) (P35225 35-146 limits assumed, stated change not applied): as the sequence (P35225 other isoform, or with tags, fused parts or gaps limits assumed) above, with R110Q counted along it

B1: MJ2-7 (antibody, from another filing, V domains shown)
VH: EVQLQQSGAELVKPGASVKLSCTGSGFNIKDTYIHWVKQRPEQGLEWIGRIDPANDNIKYDPKFQGKATITADTSSNTAYLQLNSLTSEDTAVYYCARSEENWYDFFDYWGQGTTLTVSS
VL: DVLMTQTPLSLPVSLGDQASISCRSSQSIVHSNGNTYLEWYLQKPGQSPKLLIYKVSNRFSGVPDRFSGSGSGTDFTLKISRVEAEDLGVYYCFQGSHIPYTFGGGTKLEIK
As for B1, the Kd was found to be 0.79 nM in test [1] and 1.14 nM in test [2]. In addition, the % inhibition at 100 nM in test [3] is 70%; in test [5] it was 60%. The IC50 came out at 19 nM in test [4] and 17.6 nM in test [6].

The term Kd denotes the concentration at which binding is half-saturated. High values mean lower affinity, low ones higher affinity. Usually % inhibition stands for the percentage by which the read-out fell short of the control. A higher % inhibition goes with strong suppression. A word on the IC50: it is the midpoint of a concentration-inhibition curve. A high value points to a need for much substance.
